Measured values published in patent US20180186893A1 (NATIONAL RESEARCH COUNCIL OF CANADA, published 2018).

B1: c11H9 (chimeric 11H9, human IgG1 / human kappa 1) (antibody, V domains shown)
VH: EVQLVESGGRLVQPKGSLKLSCAASGFTFNTYAMYWIRQAPGKGLEWVARIRSKSNNYAIYYADSVKDRFTISRDDSQSMLYLQMNNLKTEDTAMYYCVRGWDWFAYWGQGTPVTVSA
VL: DVVMTQTPLSLPVSLGDQASISCRSSQSLVHSNGNTYLHWYLQKPGQSPKLLIYKVSNRFSGVPDRFSGSGSGTDFTLKISRVEAEDLGVYFCSQNTHVPPTFGGGTKLEIKR
notes: Expressed in CHO cells; also called chimeric (c) 11H9; c1H9
B2: c12H8 (chimeric 12H8, human IgG1 / human kappa 1) (antibody, V domains shown)
VH: QIQLVQSGPELKKPGETVKISCKASGYTFTNYGMNWVQQAPGKGLKWMGWINTYTGEPTYADDFKGRFAFSLETSASTAYLQINNLKNEDMATYFCARGGIATPTSYWGQGTTLTVSS
VL: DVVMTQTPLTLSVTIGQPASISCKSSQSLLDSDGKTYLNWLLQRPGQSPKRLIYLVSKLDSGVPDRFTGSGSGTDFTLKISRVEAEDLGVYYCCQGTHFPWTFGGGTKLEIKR
notes: Expressed in CHO cells
B3: c12H8-DM1 (antibody, V domains shown)
VH: QIQLVQSGPELKKPGETVKISCKASGYTFTNYGMNWVQQAPGKGLKWMGWINTYTGEPTYADDFKGRFAFSLETSASTAYLQINNLKNEDMATYFCARGGIATPTSYWGQGTTLTVSS
VL: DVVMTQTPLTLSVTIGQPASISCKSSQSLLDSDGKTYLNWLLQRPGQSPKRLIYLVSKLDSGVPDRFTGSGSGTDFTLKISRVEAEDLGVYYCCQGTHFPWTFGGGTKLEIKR
modifications: DM1 (mertansine) conjugated with SMCC-DM1, target DAR 3.5; sites not stated
B4: mAb 12H8 (hybridoma-derived) (antibody, mouse IgG1, V domains shown)
VH: QIQLVQSGPELKKPGETVKISCKASGYTFTNYGMNWVQQAPGKGLKWMGWINTYTGEPTYADDFKGRFAFSLETSASTAYLQINNLKNEDMATYFCARGGIATPTSYWGQGTTLTVSS
VL: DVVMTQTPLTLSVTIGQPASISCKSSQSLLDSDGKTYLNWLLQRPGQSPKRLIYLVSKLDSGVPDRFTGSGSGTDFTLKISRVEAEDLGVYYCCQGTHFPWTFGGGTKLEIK
notes: also called clone 12H8 (fusion F101); 12HD8

Key:
[1] = biological target: T1, hCA-IX PG domain fragment #14 (aa 37-140) displayed on yeast as Aga2-HA-CA9-MYC (pPNL6), clone 14 A + B (human, UniProt P32781 19-87 (Saccharomyces cerevisiae entry)); test: YSD whole yeast cell ELISA, native PG tiling fragment, normalised to anti-MYC
T1 construct: not shown: HA tag; MYC tag

[2] = biological target: T2, hCA-IX PG domain fragment #6 (aa 87-101) displayed on yeast as Aga2-HA-CA9-MYC (pPNL6), clone 6 A + B (human, UniProt P32781 19-87 (Saccharomyces cerevisiae entry)); test: as above
T2 construct: not shown: HA tag; MYC tag

[3] = biological target: T3, hCA-IX PG domain fragment #5 (aa 77-91) displayed on yeast as Aga2-HA-CA9-MYC (pPNL6), clone 5 A + B (human, UniProt P32781 19-87 (Saccharomyces cerevisiae entry)); test: as above
T3 construct: not shown: HA tag; MYC tag

[4] = biological target: T4, hCA-IX PG domain fragment #12 (aa 67-111) displayed on yeast as Aga2-HA-CA9-MYC (pPNL6), clone 12 A + B (human, UniProt P32781 19-87 (Saccharomyces cerevisiae entry)); test: as above
T4 construct: not shown: HA tag; MYC tag

[5] = biological target: T5, hCA-IX fragment 8 (aa 38-414, +PG+CA+) displayed on yeast as Aga2-HA-CA9-MYC (pPNL6), clone 8B (human, UniProt P32781 19-87; Q16790 38-414); test: YSD whole yeast cell ELISA, native, normalised to anti-MYC
[6] = biological target: T6, hCA-IX fragment 2 (aa 38-136, +PG+) displayed on yeast as Aga2-HA-CA9-MYC (pPNL6), clone 2B (human, UniProt P32781 19-87; Q16790 38-136); test: as above
T6 construct: not shown: HA tag; MYC tag

[7] = biological target: T7, rhCA-IV (human, UniProt P22748 19-283, limits assumed); test: SPR, antibody captured by anti-human Fc
T7 construct: Bought; construct not described; also called recombinant human CA-IV

[8] = biological target: T8, rmCA-IX (murine, UniProt Q8VHB5 32-389, limits assumed); test: SPR, antibody captured by anti-human Fc
T8 construct: Bought; construct not described; also called recombinant murine (rm)CA-IX

[9] = biological target: T9, rhCA-XIV (human, UniProt Q9ULX7 16-290, limits assumed); test: SPR, antibody captured by anti-human Fc
T9 construct: Bought; construct not described; also called recombinant human CA-XIV

[10] = biological target: T10, human CA-XII extracellular domain (ECD) (human, UniProt O43570 25-301); test: SPR, antibody captured by anti-human Fc
T10 construct: extracellular domain

[11] = biological target: T11, rhCA-XII (human, UniProt O43570 25-291, limits assumed); test: SPR, antibody captured by anti-human Fc
T11 construct: Bought; construct not described; also called recombinant human CA-XII (Sino Biologics)

[12] = biological target: T12, hCA-IX PG domain fragment #10 (aa 126-140) displayed on yeast as Aga2-HA-CA9-MYC (pPNL6), clone 10 A + B (human, UniProt P32781 19-87 (Saccharomyces cerevisiae entry)); test: YSD whole yeast cell ELISA, native PG tiling fragment;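 note: monoclonal antibody binding to intact yeast cells displaying the fragment, read by ELISA, with the anti-CA-IX signal normalized against the anti-MYC display signal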
T12 construct: not shown: HA tag; MYC tag

[13] = biological target: T13, hCA-IX PG domain fragment #2 (aa 47-61) displayed on yeast as Aga2-HA-CA9-MYC (pPNL6), clone 2 A + B (human, UniProt P32781 19-87 (Saccharomyces cerevisiae entry)); test: as above
T13 construct: not shown: HA tag; MYC tag

[14] = biological target: T14, hCA-IX PG domain fragment #9 (aa 117-131) displayed on yeast as Aga2-HA-CA9-MYC (pPNL6), clone 9 A + B (human, UniProt P32781 19-87 (Saccharomyces cerevisiae entry)); test: as above
T14 construct: not shown: HA tag; MYC tag

[15] = biological target: T15, hCA-IX PG domain fragment #7 (aa 97-111) displayed on yeast as Aga2-HA-CA9-MYC (pPNL6), clone 7 A + B (human, UniProt P32781 19-87 (Saccharomyces cerevisiae entry)); test: as above
T15 construct: not shown: HA tag; MYC tag

[16] = biological target: T16, hCA-IX PG domain fragment #1 (aa 37-51) displayed on yeast as Aga2-HA-CA9-MYC (pPNL6), clone 1 A + B (human, UniProt P32781 19-87 (Saccharomyces cerevisiae entry)); test: as above
T16 construct: not shown: HA tag; MYC tag

[17] = biological target: T17, hCA-IX PG domain fragment #3 (aa 57-71) displayed on yeast as Aga2-HA-CA9-MYC (pPNL6), clone 3 A + B (human, UniProt P32781 19-87 (Saccharomyces cerevisiae entry)); test: as above
T17 construct: not shown: HA tag; MYC tag

[18] = biological target: T18, hCA-IX PG domain fragment #4 (aa 67-81) displayed on yeast as Aga2-HA-CA9-MYC (pPNL6), clone 4 A + B (human, UniProt P32781 19-87 (Saccharomyces cerevisiae entry)); test: as above
T18 construct: not shown: HA tag; MYC tag

[19] = biological target: T19, hCA-IX PG domain fragment #11 (aa 37-71) displayed on yeast as Aga2-HA-CA9-MYC (pPNL6), clone 11 A + B (human, UniProt P32781 19-87 (Saccharomyces cerevisiae entry)); test: as above
T19 construct: not shown: HA tag; MYC tag

[20] = biological target: T16, hCA-IX PG domain fragment #1 (aa 37-51) …; test: YSD whole yeast cell ELISA, native PG tiling fragment, normalised to anti-MYC
[21] = biological target: T19, hCA-IX PG domain fragment #11 (aa …); test: as above
[22] = biological target: human Carbonic Anhydrase IX (hCA-IX) (human, UniProt Q16790 38-459); test: cell-based or functional assay
[23] = biological target: T20, rhCA-IX ECD dimer (human, UniProt Q16790 38-414); test: SPR (ProteOn XPR36), antibody captured by anti-human Fc, 0.74-60 nM antigen flowed, 1:1 model, 25 C
[24] = biological target: T21, hCA-IX PG domain fragment #13 (aa 107-140) displayed on yeast as Aga2-HA-CA9-MYC (pPNL6), clone 13 A + B (human, UniProt P32781 19-87 (Saccharomyces cerevisiae entry)); test: YSD whole yeast cell ELISA, native PG tiling fragment;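 note: monoclonal antibody binding to intact yeast cells displaying the fragment, read by ELISA, with the anti-CA-IX signal normalized against the anti-MYC display signal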
T21 construct: not shown: HA tag; MYC tag

[25] = biological target: T2, hCA-IX PG domain fragment #6 (aa …); test: as above
[26] = biological target: T3, hCA-IX PG domain fragment #5 (aa 77-91) …; test: as above
[27] = biological target: T22, hCA-IX PG domain fragment #8 (aa 107-121) displayed on yeast as Aga2-HA-CA9-MYC (pPNL6), clone 8 A + B (human, UniProt P32781 19-87 (Saccharomyces cerevisiae entry)); test: as above
T22 construct: not shown: HA tag; MYC tag

[28] = biological target: T4, hCA-IX PG domain fragment #12 (aa …); test: as above
[29] = biological target: T5, hCA-IX fragment 8 (aa 38-414, +PG+CA+) …; test: YSD whole yeast cell ELISA, heat-denatured (80 C, 30 min), normalised to anti-MYC
[30] = biological target: T23, dimeric CA-IX extracellular domain (ECD) from mouse (mouse, UniProt Q8VHB5 32-390); test: SPR, antibody captured by anti-human Fc, specific binding yes/no
T23 construct: extracellular domain

[31] = biological target: T20, rhCA-IX ECD dimer; test: SPR (ProteOn XPR36), mAb captured by anti-mouse Fc, 60 nM antigen flowed, 1:1 model, 25 C
[32] = biological target: T24, rhCA-IX ECD mixture (monomer + dimer) (human, UniProt Q16790 38-414); test: as above
[33] = biological target: T24, rhCA-IX ECD mixture (monomer + dimer); test: reverse phase protein array, purified antigen; RPPA; ratio native/denatured, purified antigen

T13 sequence (P32781 19-87 limits assumed): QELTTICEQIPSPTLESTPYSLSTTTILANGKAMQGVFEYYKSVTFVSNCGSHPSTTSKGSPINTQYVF
T4 sequence (P32781 19-87 limits assumed, chain 1 of 2): as the sequence (P32781 19-87 limits assumed) above
T4 sequence (chain (part 2 of 2), as listed by the source limits assumed, chain 2 of 2): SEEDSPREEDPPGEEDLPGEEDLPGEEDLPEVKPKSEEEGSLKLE
T19 sequence (P32781 19-87 limits assumed, chain 1 of 2): as the sequence (P32781 19-87 limits assumed) above
T19 sequence (chain (part 2 of 2), as listed by the source limits assumed, chain 2 of 2): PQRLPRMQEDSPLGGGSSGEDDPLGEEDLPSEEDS
T14 sequence (P32781 19-87 limits assumed): as the sequence (P32781 19-87 limits assumed) above
T18 sequence (P32781 19-87 limits assumed): as above
T12 sequence (P32781 19-87 limits assumed): as above
T5 sequence (P32781 19-87 limits assumed, chain 1 of 2, other chains not shown): as the sequence (P32781 19-87 limits assumed) above
T15 sequence (P32781 19-87 limits assumed): as above
T17 sequence (P32781 19-87 limits assumed): as above
T3 sequence (P32781 19-87 limits assumed): as above
T6 sequence (P32781 19-87 limits assumed, chain 1 of 2, other chains not shown): as the sequence (P32781 19-87 limits assumed) above
T2 sequence (P32781 19-87 limits assumed): as above
T1 sequence (P32781 19-87 limits assumed, chain 1 of 2): as the sequence (P32781 19-87 limits assumed) above
T1 sequence (chain (part 2 of 2), as listed by the source limits assumed, chain 2 of 2): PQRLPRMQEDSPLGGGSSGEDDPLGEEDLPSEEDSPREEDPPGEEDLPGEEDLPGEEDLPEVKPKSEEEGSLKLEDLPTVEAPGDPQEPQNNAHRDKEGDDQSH
T16 sequence (P32781 19-87 limits assumed): as the sequence (P32781 19-87 limits assumed) above
T10 sequence (O43570 25-301): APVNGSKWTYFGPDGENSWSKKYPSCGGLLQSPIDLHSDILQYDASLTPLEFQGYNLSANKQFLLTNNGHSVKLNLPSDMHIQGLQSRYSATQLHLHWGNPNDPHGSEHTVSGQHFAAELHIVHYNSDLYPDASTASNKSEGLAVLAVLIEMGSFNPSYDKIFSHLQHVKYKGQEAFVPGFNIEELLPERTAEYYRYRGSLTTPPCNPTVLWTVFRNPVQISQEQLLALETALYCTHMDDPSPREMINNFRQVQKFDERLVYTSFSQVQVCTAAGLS
T9 sequence (Q9ULX7 16-290 limits assumed): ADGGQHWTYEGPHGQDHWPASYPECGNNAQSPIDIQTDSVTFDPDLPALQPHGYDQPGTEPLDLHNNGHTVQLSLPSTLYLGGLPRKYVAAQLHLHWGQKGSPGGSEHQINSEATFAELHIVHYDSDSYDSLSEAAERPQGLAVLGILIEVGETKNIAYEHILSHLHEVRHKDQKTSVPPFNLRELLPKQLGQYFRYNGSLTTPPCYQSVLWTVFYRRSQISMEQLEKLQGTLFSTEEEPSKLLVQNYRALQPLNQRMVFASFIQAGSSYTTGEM
T7 sequence (P22748 19-283 limits assumed): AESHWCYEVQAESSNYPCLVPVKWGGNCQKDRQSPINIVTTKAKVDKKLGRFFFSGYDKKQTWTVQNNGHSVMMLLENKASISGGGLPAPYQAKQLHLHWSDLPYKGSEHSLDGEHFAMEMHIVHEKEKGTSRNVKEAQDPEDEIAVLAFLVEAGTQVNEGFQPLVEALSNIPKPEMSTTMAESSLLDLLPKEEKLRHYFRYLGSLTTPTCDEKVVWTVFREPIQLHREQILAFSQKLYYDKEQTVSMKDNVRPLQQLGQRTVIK
T11 sequence (O43570 25-291 limits assumed): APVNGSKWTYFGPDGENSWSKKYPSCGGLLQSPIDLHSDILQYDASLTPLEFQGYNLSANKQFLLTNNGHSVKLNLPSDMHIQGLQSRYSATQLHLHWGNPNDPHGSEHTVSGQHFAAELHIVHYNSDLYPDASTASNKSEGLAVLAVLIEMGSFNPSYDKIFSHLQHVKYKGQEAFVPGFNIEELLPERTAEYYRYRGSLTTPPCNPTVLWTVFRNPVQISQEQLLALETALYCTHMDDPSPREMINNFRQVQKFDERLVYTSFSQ
T8 sequence (Q8VHB5 32-389 limits assumed): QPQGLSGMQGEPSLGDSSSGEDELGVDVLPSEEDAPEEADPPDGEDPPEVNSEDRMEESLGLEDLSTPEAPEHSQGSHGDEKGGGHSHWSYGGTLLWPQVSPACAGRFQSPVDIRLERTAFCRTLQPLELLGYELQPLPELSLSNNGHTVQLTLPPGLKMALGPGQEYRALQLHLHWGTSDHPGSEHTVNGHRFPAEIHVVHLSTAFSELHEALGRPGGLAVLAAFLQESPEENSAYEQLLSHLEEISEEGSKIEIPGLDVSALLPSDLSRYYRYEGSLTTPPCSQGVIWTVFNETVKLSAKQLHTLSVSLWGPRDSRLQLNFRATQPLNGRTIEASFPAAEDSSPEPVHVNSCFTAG
T21 sequence (P32781 19-87 limits assumed, chain 1 of 2): as the sequence (P32781 19-87 limits assumed) above
T21 sequence (chain (part 2 of 2), as listed by the source limits assumed, chain 2 of 2): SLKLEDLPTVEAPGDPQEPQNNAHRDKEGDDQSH
T22 sequence (P32781 19-87 limits assumed): as the sequence (P32781 19-87 limits assumed) above
T23 sequence (Q8VHB5 32-390): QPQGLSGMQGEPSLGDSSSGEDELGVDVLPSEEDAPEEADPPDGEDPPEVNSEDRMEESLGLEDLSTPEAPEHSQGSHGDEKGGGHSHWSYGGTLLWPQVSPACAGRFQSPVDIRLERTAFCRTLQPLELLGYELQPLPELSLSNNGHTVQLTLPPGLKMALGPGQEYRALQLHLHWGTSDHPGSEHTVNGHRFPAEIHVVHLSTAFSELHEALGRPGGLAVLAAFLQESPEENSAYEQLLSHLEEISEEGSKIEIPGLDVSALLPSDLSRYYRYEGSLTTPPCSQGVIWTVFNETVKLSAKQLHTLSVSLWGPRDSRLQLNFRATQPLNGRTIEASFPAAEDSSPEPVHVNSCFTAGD

Binder | binding result [1] | binding result [6] | binding result [7] | binding result [8] | binding result [9] | binding result [10] | binding result [11] | binding result [12] | binding result [13] | binding result [14] | binding result [15] | binding result [17] | binding result [18] | further results
B1 | binds | binds | no binding (tested: 100 nM) | no binding (tested: 100 nM) | no binding (tested: 100 nM) | no binding (tested: 100 nM) | no binding (tested: 100 nM) | no binding | no binding | no binding | no binding | no binding | no binding | binding result [2]: binds; binding result [3]: binds; binding result [4]: binds; binding result [5]: binds; binding result [16]: no binding; binding result [19]: no binding
B2 | binds | binds | no binding (tested: 100 nM) | no binding (tested: 100 nM) | no binding (tested: 100 nM) | no binding (tested: 100 nM) | no binding (tested: 100 nM) | no binding | no binding | no binding | no binding | no binding | no binding | binding result [20]: binds; binding result [21]: binds; IC50 (nM), cell viability of sk-rc-52 cells, surrogate ADC assay (Mab-Zap saporin secondary antibody) [22]: 23.6 nM; Kd [23]: 0.979 nM; binding result [24]: no binding; binding result [25]: no binding; binding result [26]: no binding; binding result [27]: no binding; binding result [28]: no binding; binding result [29]: binds; binding result [30]: no binding
B3 | – | – | – | – | – | – | – | – | – | – | – | – | – | IC50 (nM), cell viability of sk-rc-52 cells, ADC assay [22]: 17.9 nM
B4 | – | – | – | – | – | – | – | – | – | – | – | – | – | Kd [31]: 0.143 nM; koff [32]: < 1e-05 s⁻¹; Ratio (A)/(B), native over denatured [33]: 1.11
